# T1: MobAR (minMobA) (plasmid RSF1010, UniProt P07112 1-186)
# T1 sequence: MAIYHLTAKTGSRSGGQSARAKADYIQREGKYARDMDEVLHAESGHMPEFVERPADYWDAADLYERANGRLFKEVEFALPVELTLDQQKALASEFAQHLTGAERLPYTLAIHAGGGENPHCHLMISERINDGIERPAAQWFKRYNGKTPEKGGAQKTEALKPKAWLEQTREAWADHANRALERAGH
# T2: TrwCR (N-terminal relaxase domain of TrwC) (UniProt Q47673 1-293)
# T2 sequence: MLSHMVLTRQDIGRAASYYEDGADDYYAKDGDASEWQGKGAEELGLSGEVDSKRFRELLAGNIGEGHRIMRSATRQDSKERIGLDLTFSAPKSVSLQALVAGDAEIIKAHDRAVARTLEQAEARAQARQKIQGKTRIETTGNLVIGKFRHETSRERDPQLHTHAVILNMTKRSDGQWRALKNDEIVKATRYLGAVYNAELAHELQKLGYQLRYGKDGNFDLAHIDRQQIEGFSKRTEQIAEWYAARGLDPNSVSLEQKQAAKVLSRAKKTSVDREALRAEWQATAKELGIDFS
# T3: TraIR (N-terminal domain of TraI) (plasmid RP4, UniProt Q00191 1-270)
# T3 sequence: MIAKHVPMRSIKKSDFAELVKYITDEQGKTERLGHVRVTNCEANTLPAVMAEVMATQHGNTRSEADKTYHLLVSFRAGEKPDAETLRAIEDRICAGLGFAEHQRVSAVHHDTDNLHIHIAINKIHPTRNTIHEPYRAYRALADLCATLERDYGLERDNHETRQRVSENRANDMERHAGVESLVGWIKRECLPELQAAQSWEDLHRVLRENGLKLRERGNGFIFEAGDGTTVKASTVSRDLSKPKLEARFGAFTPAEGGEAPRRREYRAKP
# Legend:
# [1] = molecular target: T1, MobAR (minMobA); experiment: SDS-PAGE covalent complex; 5 mM Mg2+; Covalent complex: 15 uM oligo, 37 C 1 h, 5 mM MgCl2, 15 uM EDTA; TrwCR 10 mM Tris pH 7.6, 375 mM NaCl; MobAR 25 mM Tris pH 8.0, 225 mM NaCl; TraIR 10 mM Tris pH 7.6, 225 mM NaCl. EMSA: 50 nM oligo, 10 mM Tris pH 7.6, 100 mM NaCl, 1 mM EDTA, RT 30 min. Gel filtration: 100 mM Tris pH 7.6, 200 mM NaCl, EDTA; settings: protein: recombinant; hairpin
# [2] = molecular target: T2, TrwCR (N-terminal relaxase domain of …); experiment: gel filtration; EDTA; Covalent complex: 15 uM oligo, 37 C 1 h, 5 mM MgCl2, 15 uM EDTA; TrwCR 10 mM Tris pH 7.6, 375 mM NaCl; MobAR 25 mM Tris pH 8.0, 225 mM NaCl; TraIR 10 mM Tris pH 7.6, 225 mM NaCl. EMSA: 50 nM oligo, 10 mM Tris pH 7.6, 100 mM NaCl, 1 mM EDTA, RT 30 min. Gel filtration: 100 mM Tris pH 7.6, 200 mM NaCl, EDTA; settings: protein: recombinant; hairpin
# [3] = molecular target: T2, TrwCR (N-terminal relaxase domain of …); experiment: SDS-PAGE covalent complex; 5 mM Mg2+; Covalent complex: 15 uM oligo, 37 C 1 h, 5 mM MgCl2, 15 uM EDTA; TrwCR 10 mM Tris pH 7.6, 375 mM NaCl; MobAR 25 mM Tris pH 8.0, 225 mM NaCl; TraIR 10 mM Tris pH 7.6, 225 mM NaCl. EMSA: 50 nM oligo, 10 mM Tris pH 7.6, 100 mM NaCl, 1 mM EDTA, RT 30 min. Gel filtration: 100 mM Tris pH 7.6, 200 mM NaCl, EDTA; settings: protein: recombinant
# [4] = molecular target: T3, TraIR (N-terminal domain of TraI); experiment: as above; settings: protein: recombinant
# [5] = molecular target: T2, TrwCR (N-terminal relaxase domain of …); experiment: gel filtration; EDTA; slight shift; Covalent complex: 15 uM oligo, 37 C 1 h, 5 mM MgCl2, 15 uM EDTA; TrwCR 10 mM Tris pH 7.6, 375 mM NaCl; MobAR 25 mM Tris pH 8.0, 225 mM NaCl; TraIR 10 mM Tris pH 7.6, 225 mM NaCl. EMSA: 50 nM oligo, 10 mM Tris pH 7.6, 100 mM NaCl, 1 mM EDTA, RT 30 min. Gel filtration: 100 mM Tris pH 7.6, 200 mM NaCl, EDTA; settings: protein: recombinant; hairpin
# [6] = molecular target: T2, TrwCR (N-terminal relaxase domain of …); experiment: SDS-PAGE covalent complex; 5 mM Mg2+; text says product not detected; Covalent complex: 15 uM oligo, 37 C 1 h, 5 mM MgCl2, 15 uM EDTA; TrwCR 10 mM Tris pH 7.6, 375 mM NaCl; MobAR 25 mM Tris pH 8.0, 225 mM NaCl; TraIR 10 mM Tris pH 7.6, 225 mM NaCl. EMSA: 50 nM oligo, 10 mM Tris pH 7.6, 100 mM NaCl, 1 mM EDTA, RT 30 min. Gel filtration: 100 mM Tris pH 7.6, 200 mM NaCl, EDTA; settings: protein: recombinant; hairpin
binder,measurement,setting,value
CAGTTTCTCGAAGAGAAACCGGTAAGTGCGCCCTCCC (structured_DNA) [RSF1010 WQ(30+7)],binding signal,[1],43.9 ± 1.4 % covalent complex
CCGGTGCGTATTGTCTATAGCCCGCGCACCGG (structured_DNA) [R388 H(16+16)],binding result,[2],binds
GAGAAACCGGTAAGTGCGCCCTCCCCAGTTTCTC (structured_DNA) [RSF1010 HQ(18+16)],binding signal,[1],13.1 ± 4.2 % covalent complex
AACCGGCTAGGTGCGTATTGTCTATAGCCCACGCACCTAGCCGGTT (structured_DNA) [R388 H(23+23)],binding result,[2],binds
GGTGCGTATTGTCTATAGCCGCGCACC (structured_DNA) [R388 H(14+13)],binding signal,[3]; hairpin,23.3 ± 2.9 % covalent complex
TATTGTCTATAGCCCACGCACC (ssDNA) [R388 R(8+14)],binding signal,[3],30.2 ± 4.9 % covalent complex
GGTGCGTATTGTCTATAGCGCACC (structured_DNA) [R388 H(14+10)],binding signal,[3]; hairpin,23 ± 4.7 % covalent complex
GGTGCGTATTGTCTATAGCCCGCGCACC (structured_DNA) [R388 H(14+14)],binding signal,[3]; hairpin,26.8 ± 4.7 % covalent complex
TATTGTCTATAGCCCACGCACCGAAAGGTGCG (structured_DNA) [R388 R(8+24)],binding signal,[3]; hairpin,45.3 ± 6.6 % covalent complex
GGTGCGTATTGTCTATAGCGCGCACC (structured_DNA) [R388 H(14+12)],binding signal,[3]; hairpin,25.5 ± 3.1 % covalent complex
GGTGCGTATTGTCTATAGCCCAGATTTA (ssDNA) [R388 W(14+14)],binding signal,[3],19.8 ± 1.9 % covalent complex
GTGAAGGAAACTTCACCTATCCTGCCCGGCTG (structured_DNA) [RP4 WP(24+8)],binding signal,[4]; hairpin,21.3 ± 0.9 % covalent complex
AACCGGCTAGGTGCGTATTGTCTATAGCCCAGATCGCACCTAGCCGGTT (structured_DNA) [R388 H(23+26)],binding result,[2],binds
CCGGTTGAAAACCGGTAAGTGCGCCCTCCCC (structured_DNA) [RSF1010 WQ(23+7)],binding signal,[1],41.4 ± 1.3 % covalent complex
ATTGTCTATAGCCCAGATCGCACCGAAAGGTGCG (structured_DNA) [R388 R(7+27)],binding result,[5],binds
GAGAAACCGGTAAGTGCGCCCTCCCGATCAGTTTCTC (structured_DNA) [RSF1010 HQ(18+19)],binding signal,[1],9 ± 3.1 % covalent complex
GCGCACCGAAAGGTGCGTATTGTCTATAGCCCAGATTTAAGGA (structured_DNA) [R388 W(25+18)],binding signal,[3]; hairpin,24.7 ± 2.1 % covalent complex
CTATCCTGCCCGGCTGGTGAAGGAAACTTCAC (structured_DNA) [RP4 RP(8+24)],binding signal,[4]; hairpin,23.7 ± 2.7 % covalent complex
ATAGCCCAGATCGCACCGAAAGGTGCG (structured_DNA) [R388 R(0+27)],binding signal,[6],5.8 ± 1.9 % covalent complex
GGTGCGTATTGTCTATAGCCCAGCGCACC (structured_DNA) [R388 H(14+15)],binding signal,[3]; hairpin,19.6 ± 1.4 % covalent complex
GGTGCGTATTGTCTATAGCCCAGATCGCACC (structured_DNA) [R388 H(14+17)],binding signal,[3]; hairpin,22.3 ± 6.1 % covalent complex
TATAGCCCAGATCGCACCGAAAGGTGCG (structured_DNA) [R388 R(1+27)],binding signal,[6],9.9 ± 3.2 % covalent complex
TATTGTCTATAGCCCAGATCGCACCGAAAGGTGCG (structured_DNA) [R388 R(8+27)],binding signal,[3]; hairpin,44.7 ± 1 % covalent complex
GTCTATAGCCCAGATCGCACCGAAAGGTGCG (structured_DNA) [R388 R(4+27)],binding signal,[6],9.9 ± 3.9 % covalent complex
GGTGCGTATTGTCTATCGCACC (structured_DNA) [R388 H(14+8)],binding signal,[3]; hairpin,22.4 ± 5.7 % covalent complex
ACTTCACCTATCCTGCCCGGC (ssDNA) [RP4 WP(15+6)],binding signal,[4],24.4 ± 5.7 % covalent complex

# Source: paper PMC4814116, “Design of Novel Relaxase Substrates Based on Rolling Circle Replicases for Bioconjugation to DNA Nanostructures”
